Reference: the supplement of paper PMC7877785
± gives the uncertainty stated by the source.

Assay: self-splicing fitness, log relative to wild type (ln ratio); higher = more splicing; Tetrahymena group I intron in knt gene, E. coli kanamycin selection, DiMSum; sequences stand for … in CUCUCU…GGAGGGAAAAGUUAUCAGGCAUGCACCUGGUAGCUAGUCUUUAAACCAAUAGAUUGCAUCGGUUUAAAAGGCAAGACCGUCAAAUUGCGGGAAAGGGGUCAACAGCCGUUCAGUACCAAGUCUCAGGGGAAACUUUGAGAUGGCCUUGCAAAGGGUAUGGUAAUAAGCUGACGGACAUGGUCCUAACCACGCAGCCAAGUCCUAAGUCAACAGAUCUUCUGUUGAUAUGGAUGCAGUUCACAGACUAAAUGUCGGUCGGGGAAGAUGUAUUCUUCUCAUAAGAUAUAGUCGGACCUCUCCUUAAUGGGAGCUAGCGGAUGAAGUGAUGCAACACUGGAGCCGCUGGGAACUAAUUUGUAUGCGAAAGUAUAUUGAUUAGUUUUGGAGUACUCGUGGUCG
In short: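 Pooled colonies went to amplicon sequencing on an Illumina HiSeq 2500 after six replicate transformations. The plates were LB agar with 100 μg/mL carbenicillin, 50 μM IPTG and 0.2% rhamnose, with or without 25 μg/mL kanamycin, incubated overnight at 37°C or 30°C. The E. coli BL21(DE3) library had all eight P1ex-region intron nucleotides randomised, the intron placed in the knt kanamycin-resistance gene on pET-22b(+). DiMSum fitness is the error-weighted combination of replicate fold changes, kanamycin against none, normalised to wild type.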

| Sequence | self-splicing fitness (ln) (30 °C) | self-splicing fitness (ln) (37 °C) |
| --- | --- | --- |
| CGCGAGCAAUAUUACGCAAA | -2.95 ± 0.38 | -3.4 ± 0.43 |
| CGCGAGCAAUAUUACGCACA | -2.3 ± 0.19 | -1.16 ± 0.18 |
| CGCGAGCAAUAUUACGCCAC | -3.41 ± 0.47 | – |
| CGCGAGCAAUAUUACGCCAU | -3.53 ± 0.24 | -3.92 ± 0.42 |
| CGCGAGCAAUAUUACGCCUC | -1.53 ± 0.44 | -1.38 ± 0.43 |
| CGCGAGCAAUAUUACGCGGG | -3.4 ± 0.17 | -3.6 ± 0.25 |
| CGCGAGCAAUAUUACGCUAG | – | -1.39 ± 0.29 |
| CGCGAGCAAUAUUACGCUCU | – | -0.833 ± 0.33 |
| CGCGAGCAAUAUUACGCUUC | – | -1.44 ± 0.45 |
| CGCGAGCAAUAUUACGGACA | – | -0.573 ± 0.34 |
| CGCGAGCAAUAUUACGGAGU | -4.33 ± 0.46 | -2.08 ± 0.21 |
| CGCGAGCAAUAUUACGGAUU | -3.12 ± 0.17 | -2.51 ± 0.25 |
| CGCGAGCAAUAUUACGGCCG | -3.16 ± 0.3 | -1.35 ± 0.29 |
| CGCGAGCAAUAUUACGUAGC | -3.66 ± 0.3 | -2.5 ± 0.32 |
| CGCGAGCAAUAUUACGUAUG | -1.62 ± 0.13 | -1.2 ± 0.19 |
| CGCGAGCAAUAUUACGUCAA | -2.88 ± 0.31 | – |
| CGCGAGCAAUAUUACGUCUC | -3.71 ± 0.35 | -2.28 ± 0.33 |
| CGCGAGCAAUAUUACGUGAC | – | -2.54 ± 0.3 |
| CGCGAGCAAUAUUACGUGCG | – | -3.3 ± 0.47 |
| CGCUAGCAAUAUUACGAGGU | -3.83 ± 0.31 | -2.58 ± 0.23 |
| CGCUAGCAAUAUUACGAUAU | -3.98 ± 0.36 | -2.63 ± 0.25 |
| CGCUAGCAAUAUUACGAUGC | -4.31 ± 0.46 | -2.58 ± 0.36 |
| CGCUAGCAAUAUUACGCGGC | -3.25 ± 0.35 | -3.1 ± 0.29 |
| CGCUAGCAAUAUUACGCUGG | -2.63 ± 0.28 | -1.85 ± 0.36 |
| CGCUAGCAAUAUUACGCUUG | -3.3 ± 0.27 | -3 ± 0.4 |
| CGCUAGCAAUAUUACGGAAU | -3.52 ± 0.28 | -2.02 ± 0.26 |

| Sequence | self-splicing fitness (ln) (30 °C) | self-splicing fitness (ln) (37 °C) |
| --- | --- | --- |
| CGCUAGCAAUAUUACGGAUA | -2.99 ± 0.17 | -2.14 ± 0.22 |
| CGCUAGCAAUAUUACGGAUG | -1.13 ± 0.075 | -0.108 ± 0.096 |
| CGCUAGCAAUAUUACGGCCU | -0.677 ± 0.073 | -0.609 ± 0.1 |
| CGCUAGCAAUAUUACGGGCC | -2.29 ± 0.17 | -1.92 ± 0.19 |
| CGCUAGCAAUAUUACGGUGA | -2.28 ± 0.14 | -0.996 ± 0.11 |
| CGCUAGCAAUAUUACGUACU | -2.86 ± 0.15 | -0.0116 ± 0.18 |
| CGCUAGCAAUAUUACGUAGU | -3.48 ± 0.13 | -1.34 ± 0.12 |
| CGCUAGCAAUAUUACGUUGU | -3.3 ± 0.2 | -1.59 ± 0.18 |
| CGGAAGCAAUAUUACGAACA | -1.18 ± 0.12 | -0.826 ± 0.13 |
| CGGAAGCAAUAUUACGACAG | -0.256 ± 0.17 | 0.0808 ± 0.23 |
| CGGAAGCAAUAUUACGACCU | 0.28 ± 0.096 | 0.399 ± 0.11 |
| CGGAAGCAAUAUUACGACGG | -0.101 ± 0.13 | -0.695 ± 0.14 |
| CGGAAGCAAUAUUACGAGAG | -3.45 ± 0.49 | -1.65 ± 0.26 |
| CGGAAGCAAUAUUACGAGGA | -1.95 ± 0.2 | -1.4 ± 0.19 |
| CGGAAGCAAUAUUACGCACU | -2.24 ± 0.13 | -0.396 ± 0.11 |
| CGGAAGCAAUAUUACGCAUG | -1.53 ± 0.13 | -0.32 ± 0.11 |
| CGGAAGCAAUAUUACGCCCC | -1.49 ± 0.39 | – |
| CGGAAGCAAUAUUACGCUUC | -3.81 ± 0.35 | – |
| CGGAAGCAAUAUUACGGAGU | -4.49 ± 0.39 | -2.12 ± 0.2 |
| CGGAAGCAAUAUUACGGCAA | -2.89 ± 0.22 | -1.41 ± 0.18 |
| CGGAAGCAAUAUUACGGCUU | -3.34 ± 0.3 | -2.75 ± 0.36 |
| CGGAAGCAAUAUUACGGUUG | -0.585 ± 0.059 | -0.061 ± 0.085 |
| CGGAAGCAAUAUUACGUAGC | -2.64 ± 0.38 | -3.47 ± 0.46 |
| CGGAAGCAAUAUUACGUCAU | -3.78 ± 0.16 | -3.33 ± 0.2 |
| CGGAAGCAAUAUUACGUUUU | -3.64 ± 0.23 | -2.95 ± 0.18 |
